From patent publication US12723100 (CSPC MEGALITH BIOPHARMACEUTICAL, dated 2026)
Residue numbers refer to the chain shown, from its start. Values belong to the binder of their own block, whether it stands above or below them.

Legend:
[1] = biological target: T1, human Nectin 2 (ACROBiosystems, Catalog no: PV2-H52E2) (human, UniProt Q92692 32-360); test: ELISA or Gator binding assay
T1 construct: extracellular domain
T1 sequence (looked up): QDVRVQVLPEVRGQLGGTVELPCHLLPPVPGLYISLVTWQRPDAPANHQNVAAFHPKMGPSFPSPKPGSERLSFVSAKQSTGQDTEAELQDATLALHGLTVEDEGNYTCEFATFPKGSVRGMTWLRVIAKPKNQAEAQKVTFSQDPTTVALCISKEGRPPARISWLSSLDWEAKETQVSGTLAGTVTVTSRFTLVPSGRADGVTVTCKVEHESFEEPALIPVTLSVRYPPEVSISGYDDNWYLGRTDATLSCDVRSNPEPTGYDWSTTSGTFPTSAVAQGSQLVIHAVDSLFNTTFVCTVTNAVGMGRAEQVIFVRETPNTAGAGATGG

[2] = biological target: T2, human Nectin-1 with His tag (ACROBiosystems, catalog number PV1-H5223) (human, UniProt Q15223 31-355, biotinylated in Example 3 (sites not given)); test: ELISA or Gator binding assay
T2 construct: Bought protein; also called biotinylated human Nectin-1
T2 sequence: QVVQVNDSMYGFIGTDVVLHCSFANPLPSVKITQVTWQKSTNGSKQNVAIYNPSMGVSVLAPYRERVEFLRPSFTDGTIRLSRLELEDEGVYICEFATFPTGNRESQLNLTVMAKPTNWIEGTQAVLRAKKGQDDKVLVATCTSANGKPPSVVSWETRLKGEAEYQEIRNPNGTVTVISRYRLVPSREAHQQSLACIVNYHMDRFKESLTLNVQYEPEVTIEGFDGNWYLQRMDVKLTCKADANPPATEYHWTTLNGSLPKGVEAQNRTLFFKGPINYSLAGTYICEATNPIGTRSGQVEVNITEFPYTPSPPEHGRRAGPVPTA

[3] = biological target: T3, human recombinant Nectin-4 protein (extracellular domain) (human, UniProt Q96NY8 32-349); test: ELISA, recombinant human Nectin-4 coated on plate
T3 construct: also called recombinant Nectin-4 (extracellular domain); human Nectin-4 recombinant protein
T3 sequence: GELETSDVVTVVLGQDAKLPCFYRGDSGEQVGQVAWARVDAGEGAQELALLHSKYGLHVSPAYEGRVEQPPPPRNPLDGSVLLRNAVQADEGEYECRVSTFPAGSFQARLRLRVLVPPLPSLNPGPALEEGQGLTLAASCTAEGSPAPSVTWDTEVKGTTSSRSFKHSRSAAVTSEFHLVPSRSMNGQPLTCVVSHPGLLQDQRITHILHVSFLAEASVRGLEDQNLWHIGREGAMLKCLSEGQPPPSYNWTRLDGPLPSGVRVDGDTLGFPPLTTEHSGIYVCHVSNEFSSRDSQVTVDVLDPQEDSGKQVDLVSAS
Procedure: The binding specificity of the disclosed anti-Nectin-4 antibodies was assessed by ELISA. Briefly, human recombinant Nectin-4 protein was directly coated to ELISA plates. Purified antibodies were then added to the plates followed by detection by goat-anti-mouse IgG-HRP. After addition of ABTS substrate, ELISA plates were read using an ELISA plate reader (Bioteck). The controls depicted in FIG. 2: PC1 refers to a reference antibody (known to be a Nectin-4 specific recombinant antibody, made by Novarock Biotherapeutics, lot no: 03042020KD); the negative control is a human IgG1 (Dendritics, catalog no: DDXCH01P-100, lot no: DDXCH01-028).
The ELISA binding EC50 values of the eight anti-Nectin-4 antibodies, N4_mAb 1 to N4_mAb 8 and the positive control antibody were listed in Table 3 below.

[4] = biological target: T4, cynomolgus monkey Nectin-4 (cynomolgus monkey, UniProt Q96NY8 32-510 (human entry)); test: flow cytometry, transfected 293T cells; +++ EC50 less than 5 nM
T4 construct: Transiently expressed on 293T cells; also called Cyno Nectin-4
T4 chain: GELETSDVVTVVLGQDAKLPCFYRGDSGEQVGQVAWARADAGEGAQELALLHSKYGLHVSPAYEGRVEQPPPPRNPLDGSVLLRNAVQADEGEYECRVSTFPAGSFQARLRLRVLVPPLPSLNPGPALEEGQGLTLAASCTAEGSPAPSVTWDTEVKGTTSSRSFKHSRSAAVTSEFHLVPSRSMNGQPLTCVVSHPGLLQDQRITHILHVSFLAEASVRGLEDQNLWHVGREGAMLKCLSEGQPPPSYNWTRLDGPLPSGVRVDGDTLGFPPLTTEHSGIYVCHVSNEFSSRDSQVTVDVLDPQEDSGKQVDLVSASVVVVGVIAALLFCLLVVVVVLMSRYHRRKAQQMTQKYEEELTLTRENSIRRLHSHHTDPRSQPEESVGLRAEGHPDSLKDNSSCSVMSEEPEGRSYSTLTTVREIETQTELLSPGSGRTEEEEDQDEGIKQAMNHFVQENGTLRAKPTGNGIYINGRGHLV
Procedure: CDNAs encoding Nectin-4 protein from cynomolgus monkey (SEQ ID NO: 62), rat (SEQ ID NO: 63), or mouse (SEQ ID NO: 64) were separately cloned into a pcDNA3.1-based mammalian expression plasmid. The respective plasmids were transfected to human 293T cells in a similar way described in Example 6. The binding EC50 of disclosed human Nectin-4 antibodies to species-specific Nectin-4 transiently expressed on 293T cell surface was measured by flow cytometry.

[5] = biological target: T5, recombinant human Nectin4-His protein (human, UniProt Q96NY8 32-349); test: SPR (BIAcore 3000), antibody captured by anti-human IgG, Nectin4-His as analyte
T5 construct: Analyte of the SPR assay; May be the same protein as m12; also called human Nectin-4 ECD; not shown: His tag
T5 sequence: T3 sequence
Procedure: The binding kinetics of the disclosed anti-Nectin-4-specific antibodies to recombinant human Nectin-4 was determined by Surface plasmon resonance (SPR) using BIAcore 3000 system. Briefly, CM5 chip was immobilized via amine coupling chemistry with anti-human IgG antibody (GE, Cat No BR-1000-12, lot 10283568) following the application wizards on Flow cell 4. Flow cell 3 remained unmodified to serve as a reference cell for subtraction of systematic instrument noise and drift. Run Fc4-3 detection with double blank (Fc3 and blank analyte buffer). Antibody samples were diluted to 1 ug/mL in HBS-EP and injected at a flow rate of 10 ul/min for 1 minute. Analyte recombinant human Nectin4-His protein was diluted from 10 to 0.156 nM ([…], 5 points to 0 nM in HBS-EP buffer) and injected at 50 uL/minute for 2 minutes, followed by 6 minutes dissociation. All the analyses were performed with double blanks, Fc3 and blank analyte buffer, to reduce the background. Data were analyzed using BIAevaluation software (version 4.1.1) by 1:1 binding with mass transfer model with global fit to determine apparent binding kinetics.

binding result [1]: no binding | binding result [2]: no binding | EC50 [3]: 0.03 nM | EC50 [4]: < 5 nM | Kd [5]: 0.392 nM
B5: N4_mAb 6 (antibody, human IgG1, V domains shown)
VH: QVQLQQSGPELVKPGASVRISCKASGYTFTTYYIHWVKQRPGQGLEWIGWIYPGNVNTKYTENFKDKATLTADKSSSTAYMQLSSLTSEDSAVYFCARGLYYFDFWGQGTTLTVSS
VL: SIVMTQTPKFLLVSAGDRVTITCKASQSVNNDVAWYQQKPGQSPKLLIYYASNRDTGVPDRFTGSGFGTDFTFTISSVQAEDLAVYFCQQDYSSPYTFGGGTKLEIK
notes: Tested as chimera (murine variable regions, human IgG1/kappa constants); not shown: human IgG1 constant region (Uniprot P01857); human Kappa light chain constant region (UniProt P01834)

binding result [1]: no binding | binding result [2]: no binding | EC50 [3]: 0.04 nM | EC50 [4]: < 5 nM | Kd [5]: 0.39 nM
B6: N4_mAb 7 (antibody, human IgG1, V domains shown)
VH: QVQLQQSGPELVKPGASVKMSCKASGYTFTTYYIHWVKQRPGQGLEWIGWIYPGNAGIKSNEKFKGKTTLTADKSSSTAYMLLSSLTSEDSAIYFCARGVYFFDYWGQGTTLTVSS
VL: B5 VL with A34S, Y36F, D55Y, T63S, F67Y, S76T, S77T
notes: as for B5

binding result [1]: no binding | binding result [2]: no binding | EC50 [3]: 0.14 nM | EC50 [4]: < 5 nM | Kd [5]: 0.375 nM
B7: N4_mAb 8 (antibody, human IgG1, V domains shown)
VH: B5 VH with E10V, T31S, T61N, K65R, A79S, L100I, F105Y
VL: B5 VL with S1I, Q38E, F67Y, S77T, Q89H, Y96F, G100S
notes: as for B5

The next lines start with the binder.

B1: N4_mAb 5 (antibody, human IgG1, V domains shown)
VH: EVQLQQSGPDLVKPGASVKISCKASGYSFTGHYMHWVKQSHGKSLEWIGRVNPNNGGSSYNQKFKDKAILTVDKSSTTAYMELRSLTSEDSAVYYCARDPLGGSYGFAYWGQGTLVTVSA
VL: DIVLTQSPASLAVSLGQRATISCRASQSVTTSSYSYMHWYQQKPGQPPKLLIKYASNLESGVPARFSGSGSGTDFTLNIHPVEEEDTATYYCQHSWEIPYTFGGGTKLEMK
notes: Tested as chimera (human IgG1/kappa constants); not shown: human IgG1 constant region (Uniprot P01857); human Kappa light chain constant region (UniProt P01834)
binding result [1]: no binding | binding result [2]: no binding | EC50 [3]: 0.13 nM | EC50 [4]: < 5 nM | Kd [5]: 1.58 nM

B2: N4_mAb 1 (antibody, human IgG1, V domains shown)
VH: QVQLKQSGPGLVQPSQSLSITCTVSGFSLTNYGVNWVRQPPGKGLEWLGVIWSGGSTDYNAAFISRLSISKDISKSQVFFKMNSLQADDTAKYYCAREGYDGYAMDYWGQGTSVTVSS
VL: DIQMTQSPASLSVSVGETVTITCRASENIFSSLAWYQQKQGKSPQLLVYGATNLADGVPSRFSGSGSGTQYSLKINSLQSEDFGTYWCQHFWGNPWTFGGGTKLEIK
notes: as for B5
binding result [1]: no binding | binding result [2]: no binding | EC50 [3]: 0.14 nM | EC50 [4]: < 5 nM | Kd [5]: 1.25 nM

B3: N4_mAb 4 (antibody, human IgG1, V domains shown)
VH: DVQLQESGPDLVKPSQSLSLTCTVTGYSITSAYNWHWIRQFPGNKLEWMGYIHYSGRTNYNPSLKSRISITRDTSKNQFFLQLNSLTTEDTATYYCARWITTATGWYLDVWGAGTTVTVSS
VL: not shown
notes: as for B1
binding result [1]: no binding | binding result [2]: no binding | EC50 [3]: 1.12 nM | EC50 [4]: < 5 nM | Kd [5]: 1.26 nM

B4: N4_mAb 3 (antibody, human IgG1, V domains shown)
VH: EVQLQQSGAELVKPGASVKLSCTVSGFNIKDTYMHWVKQRPEQGLEWIGRIDPANGNTKYDPKFQGKATIIADKASNTAYLQLSSLTSEDAAVYYCAHYYGSSYFAMDCWGQGTSVTVSS
VL: DIVMTQSHKFMSTSVGDRVSITCKASQDVSTAVAWYQQKPGQSPKLLIYWASTRHTGVPDRFTGSGSGTDYTLTISSVQTEDLALYYCQQHYSTPLTFGAGTKLELK
notes: as for B1
binding result [1]: no binding | binding result [2]: no binding | EC50 [3]: 1.51 nM | EC50 [4]: < 5 nM | Kd [5]: 17.2 nM

B8: N4_mAb 2 (antibody, human IgG1, V domains shown)
VH: QVQLKQSGPNLVQPSQSLSITCTVSGFSLTTYGAHWVRQSPGKGLEWLGVIWRGGSTDYNAAFMSRLSITKDNSKSQVFFKMNSLQADDTAIYYCAKIGYDGYAMDNWGQGTSVTVSS
VL: DFQVTQSPASLSASVGETVTITCRTSENIHNYLAWYQQKQGKSPQLLVYNAKTLADGVPSRFSGSGSGTQYSLKINSLQPEDFGTYYCQHFWSSPWTFGGGTKLEIK
notes: as for B1
binding result [1]: no binding | binding result [2]: no binding | EC50 [3]: 0.12 nM | EC50 [4]: < 5 nM | Kd [5]: 0.884 nM
